Test results reported in paper PMC7156385, “Proper chromosome alignment depends on BRCA2 phosphorylation by PLK1” (Nature Communications, 2020).
[ ]: non-standard residue; d: D form. pT = C[C@@H](OP(=O)(O)O)[C@H](N)C(=O)O; pS = N[C@@H](COP(=O)(O)O)C(=O)O

Assays:
[1] = biological target: BRCA2_(190-284) phosphorylated by PLK1 (human) (UniProt P51587); assay: ITC; PLK1 PBD (326-603) and BRCA2 peptides; 50 mM Tris-HCl pH 8.0, 150 mM NaCl, 5 mM β-ME, 293 K, VP-ITC, one-site binding model
[2] = biological target: purified 2xMBP-BRCA2_(1-250) T207A (human) (UniProt P51587)
[3] = biological target: endogenous BUBR1 (human (endogenous in DLD1)) (UniProt O60566); assay: co-IP; immunoprecipitation of endogenous BUBR1 with mouse anti-BUBR1 antibody from nocodazole-treated DLD1 BRCA2-/- stable clones expressing BRCA2 WT or variants; extraction buffer A, washes up to 500 mM NaCl; western blot for PP2A-C and PLK1
Sequence of endogenous BUBR1 (human (endogenous in DLD1)) (O60566 whole entry, the tested form may be a part): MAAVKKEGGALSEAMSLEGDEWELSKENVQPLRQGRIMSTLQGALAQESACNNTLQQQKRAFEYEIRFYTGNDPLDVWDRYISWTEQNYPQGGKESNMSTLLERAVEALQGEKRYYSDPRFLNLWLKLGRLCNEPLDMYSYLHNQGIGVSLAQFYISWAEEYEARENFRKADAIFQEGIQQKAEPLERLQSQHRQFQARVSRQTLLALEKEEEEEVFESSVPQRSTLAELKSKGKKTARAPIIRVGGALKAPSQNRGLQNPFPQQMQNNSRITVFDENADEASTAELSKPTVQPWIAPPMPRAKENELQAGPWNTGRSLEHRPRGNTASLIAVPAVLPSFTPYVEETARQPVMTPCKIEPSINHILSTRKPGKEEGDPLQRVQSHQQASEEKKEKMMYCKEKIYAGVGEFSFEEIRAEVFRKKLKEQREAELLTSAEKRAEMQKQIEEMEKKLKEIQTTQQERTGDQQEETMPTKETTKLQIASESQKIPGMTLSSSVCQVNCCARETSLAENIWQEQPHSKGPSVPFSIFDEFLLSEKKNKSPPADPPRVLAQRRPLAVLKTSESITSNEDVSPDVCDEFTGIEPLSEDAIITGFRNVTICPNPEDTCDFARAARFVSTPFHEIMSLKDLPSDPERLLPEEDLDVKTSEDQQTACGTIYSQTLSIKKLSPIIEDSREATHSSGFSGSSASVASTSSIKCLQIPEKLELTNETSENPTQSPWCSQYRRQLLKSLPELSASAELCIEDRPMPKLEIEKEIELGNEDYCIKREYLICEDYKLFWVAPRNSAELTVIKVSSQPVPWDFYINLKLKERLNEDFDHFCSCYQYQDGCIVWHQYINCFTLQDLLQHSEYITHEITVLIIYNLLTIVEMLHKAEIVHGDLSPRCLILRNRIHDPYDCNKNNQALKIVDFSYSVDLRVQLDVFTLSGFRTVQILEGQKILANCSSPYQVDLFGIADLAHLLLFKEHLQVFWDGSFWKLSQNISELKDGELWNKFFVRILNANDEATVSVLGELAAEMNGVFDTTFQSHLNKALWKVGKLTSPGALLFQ

[4] = biological target: T1, PLK1 Polo-box domain (amino acid 326 to amino acid 603) (UniProt P53350 326-603); assay: ITC; PLK1 PBD (326-603) and BRCA2 peptides; 50 mM Tris-HCl pH 8.0, 150 mM NaCl, 5 mM β-ME, 293 K, VP-ITC, one-site binding model; conditions: both partners purified
T1 construct: PLK1, Polo-box domain, amino acids 326 to 603, amplified from Addgene pTK24; also called PLK1PBD; PLK1 PBD (326-603); source: E. coli Tuner pLacI pRare, purified (His-Trap, SUMO protease, Ni-NTA, Superdex)
T1 sequence (P53350 326-603): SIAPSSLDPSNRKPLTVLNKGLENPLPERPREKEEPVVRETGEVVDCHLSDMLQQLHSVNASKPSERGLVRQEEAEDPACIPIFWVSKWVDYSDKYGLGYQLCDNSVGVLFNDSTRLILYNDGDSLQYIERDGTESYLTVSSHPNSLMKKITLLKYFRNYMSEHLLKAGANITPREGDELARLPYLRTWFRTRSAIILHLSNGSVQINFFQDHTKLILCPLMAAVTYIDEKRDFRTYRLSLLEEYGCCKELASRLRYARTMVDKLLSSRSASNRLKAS

[5] = biological target: T2, recombinant PLK1 (UniProt P53350 1-603); assay: pull-down; in vitro kinase reaction (0.2 µg PLK1 or PLK1-KD, 0.5 µg 2xMBP-BRCA2_(1-250), kinase buffer with 250 µM ATP or without ATP, 30 min at 30 °C) followed by amylose beads for 1 h at 4 °C, washes with 0.5% NP-40 and 0.1% Triton X-100, elution with 10 mM maltose; western blot; conditions: both partners purified
T2 construct: Polo-like kinase 1 (PLK1), cDNA from Addgene pTK24 cloned into pFast-Bac HT; also called 6xHis-PLK1; PLK1-WT; source: Sf9, purified (Ni-NTA, Capto S) or bought: Abcam
T2 sequence (P53350 whole entry): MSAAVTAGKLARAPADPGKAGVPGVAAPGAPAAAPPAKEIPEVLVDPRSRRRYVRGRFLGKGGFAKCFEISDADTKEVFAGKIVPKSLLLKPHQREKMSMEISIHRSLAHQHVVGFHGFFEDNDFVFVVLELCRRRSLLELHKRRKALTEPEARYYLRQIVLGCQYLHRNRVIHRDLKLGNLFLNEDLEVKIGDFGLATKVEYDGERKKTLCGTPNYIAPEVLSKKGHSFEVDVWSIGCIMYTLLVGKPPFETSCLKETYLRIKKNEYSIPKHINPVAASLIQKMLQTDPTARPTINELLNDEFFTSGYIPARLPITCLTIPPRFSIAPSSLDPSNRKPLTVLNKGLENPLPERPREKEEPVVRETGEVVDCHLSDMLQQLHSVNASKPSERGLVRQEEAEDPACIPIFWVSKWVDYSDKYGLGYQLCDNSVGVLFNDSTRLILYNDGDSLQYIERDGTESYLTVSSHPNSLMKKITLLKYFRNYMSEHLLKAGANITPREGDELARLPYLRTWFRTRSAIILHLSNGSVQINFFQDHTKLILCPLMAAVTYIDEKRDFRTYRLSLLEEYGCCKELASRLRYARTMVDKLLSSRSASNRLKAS

Sequence of BRCA2_(190-284) phosphorylated by PLK1 (human) (P51587 190-284): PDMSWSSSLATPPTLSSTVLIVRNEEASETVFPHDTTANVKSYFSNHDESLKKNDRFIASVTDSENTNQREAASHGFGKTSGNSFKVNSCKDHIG

Molecule: PLK1 Polo-box domain (amino acid 326 to amino acid 603) (from UniProt P53350 326-603) (domain or fragment)
- Kd [1]: 140 nM

Molecule: recombinant PLK1 (from UniProt P53350 1-603) (enzyme)
- fold decrease in in vitro kinase assay: phosphorylation of 2xMBP-BRCA2 (1-250) by recombinant PLK1 (32P), T207A against WT [2]: 2 fold

Molecule: PP2A (detected by its catalytic subunit, PP2AC) (from UniProt P67775 1-309) (cell line)
- reduction of PP2A co-immunoprecipitated with BUBR1 in BRCA2-T207A cells against BRCA2 WT cells [3]: 30%

B1: BRCA2 17 aa peptide containing pT207 (194WSSSLATPPTLSS{pT}VLI210) (peptide)
peptide: Ac-WSSSLATPPTLSS[pT]VLI-NH2
SMILES: CC[C@H](C)[C@H](NC(=O)[C@H](CC(C)C)NC(=O)[C@@H](NC(=O)[C@@H](NC(=O)[C@H](CO)NC(=O)[C@H](CO)NC(=O)[C@H](CC(C)C)NC(=O)[C@@H](NC(=O)[C@@H]1CCCN1C(=O)[C@@H]1CCCN1C(=O)[C@@H](NC(=O)[C@H](C)NC(=O)[C@H](CC(C)C)NC(=O)[C@H](CO)NC(=O)[C@H](CO)NC(=O)[C@H](CO)NC(=O)[C@H](Cc1c[nH]c2ccccc12)NC(C)=O)[C@@H](C)O)[C@@H](C)O)[C@@H](C)OP(=O)(O)O)C(C)C)C(N)=O
notes: BRCA2, human, residues 194-210, T207 phosphorylated; Used for ITC and for the crystal; also called pT207 peptide; T207 phosphorylated peptide; source: synthetic peptide
- Kd [4]: 90 ± 10 nM

B2: BRCA2 peptide containing pS197 (peptide)
chain: Ac-DMSWSS[pS]LAT-NH2
SMILES: CSCC[C@H](NC(=O)[C@H](CC(=O)O)NC(C)=O)C(=O)N[C@@H](CO)C(=O)N[C@@H](Cc1c[nH]c2ccccc12)C(=O)N[C@@H](CO)C(=O)N[C@@H](CO)C(=O)N[C@@H](COP(=O)(O)O)C(=O)N[C@@H](CC(C)C)C(=O)N[C@@H](C)C(=O)N[C@H](C(N)=O)[C@@H](C)O
- Kd [4]: 17000 ± 2000 nM

B3: purified 2xMBP-BRCA2_(1-250) WT (domain or fragment, human, UniProt P51587 1-250, looked up)
chain: MPIGSKERPTFFEIFKTRCNKADLGPISLNWFEELSSEAPPYNSEPAEESEHKNNNYEPNLFKTPQRKPSYNQLASTPIIFKEQGLTLPLYQSPVKELDKFKLDLGRNVPNSRHKSLRTVKTKMDQADDVSCPLLNSCLSESPVVLQCTHVTPQRDKSVVCGSLFHTPKFVKGRQTPKHISESLGAEVDPDMSWSSSLATPPTLSSTVLIVRNEEASETVFPHDTTANVKSYFSNHDESLKKNDRFIASV
notes: BRCA2, human, amino acids 1 to 250; also called PLK1-phosphorylated BRCA2_(1-250); source: HEK293T, transfected, purified (amylose resin, Bio-Rex 70)
- binding result [5]: binds
